Starred links: 1 amine or outer side, 2 acyl side, 3 side chain; linkers in the order of their positions; H or OH if unused. Positions of bridges follow the written chain, without caps; N, C: chain ends. Non-standard residues stand in square brackets, D forms with d. Primed or numbered codes have the meaning given here. No end group written: not given here. O2beY = O-(2-bromoethyl)-tyrosine (p-2beF), reacts with Cys to form a thioether, O=C([C@H](Cc1ccc(OCCBr)cc1)N[*:1])[*:2]; pCaaF″ = p-(2-chloro-acetamido)-phenylalanine, thioether-linked to Cys, O=C(C[*:3])Nc1ccc(C[C@H](N[*:1])C(=O)[*:2])cc1; pCaaF = p-(2-chloroacetamido)-phenylalanine, O=C(CCl)Nc1ccc(C[C@H](N[*:1])C(=O)[*:2])cc1
Legend:
streptavidin [1] = molecular target: T1, streptavidin (UniProt P22629 37-163, limits assumed); experiment: plate binding assay: streptavidin-coated plate, FLAG-tagged binder titrated, HRP anti-FLAG detection, 1:1 isotherm fit
T1 sequence (P22629 37-163 limits assumed): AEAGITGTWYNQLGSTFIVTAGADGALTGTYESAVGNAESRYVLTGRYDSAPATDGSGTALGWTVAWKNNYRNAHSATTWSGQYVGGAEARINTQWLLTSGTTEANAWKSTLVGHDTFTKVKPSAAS
Text: The resulting cyclopeptibody (called Strep-m3-Tras-Fc) was expressed, purified, and characterized as described in Example 4. This construct was confirmed to contain the cyclic peptide constrained via O2beY/Cys thioether (i/i-8) linkage, where ‘i’ indicates the position of the non-canonical amino acid O2beY (also refereed to herein as p-2beF). The cyclopeptibody Strep-m3-Tras-Fc was then characterized for its streptavidin binding affinity using a reported in vitro binding assay (Owens et al, ACS Cent Sci. (2020); 6(3):368-381).
Streptavidin Binding Assay. For the streptavidin binding assays, streptavidin-coated plates (Sigma-Aldrich) were used. […] After washing three times with wash buffer, 100 μL of 2.2 mM o-phenylenediamine dihydrochloride, 4.2 mM urea hydrogen peroxide, 100 mM dibasic sodium phosphate, and 50 mM sodium citrate, pH 5.0, were added to each well, followed by measurement of the absorbance at 450 nm after 10-20 min using a Tecan Infinite 1000 plate reader. Equilibrium dissociation constants (Kp) were determined by fitting the dose-response curves to a 1:1 binding isotherm equation via nonlinear regression. using SigmaPlot. Mean values and standard deviations were calculated from experiments performed in triplicate.

[2] = molecular target: T2, PD-L1 (Programmed Death-Ligand 1), recombinant, His-tagged (human, UniProt Q9NZQ7 18-134, limits assumed); experiment: plate binding assay with immobilised PD-L1
T2 construct: Immobilised on microtiter plates
T2 sequence (Q9NZQ7 18-134 limits assumed): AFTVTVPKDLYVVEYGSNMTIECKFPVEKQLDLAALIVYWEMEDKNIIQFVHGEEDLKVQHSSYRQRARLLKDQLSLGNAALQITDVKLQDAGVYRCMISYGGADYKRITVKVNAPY
Experimental: After washing (3×150 μL of PBS with 0.05% Tween-20), each well was incubated with 100 μL of purified FLAG-tagged cyclopeptibody at varying concentrations for 1 hour at room temperature. After washing three times with wash buffer, each well was incubated with 100 μL of 1:2500 dilution of HRP-conjugate mouse anti-FLAG polyclonal antibody (Sigma-Aldrich) for 1 hour at room temperature. After washing three times with wash buffer, 100 μL of 2.2 mM o-phenylenediamine dihydrochloride, 4.2 mM urea hydrogen peroxide, 100 mM dibasic sodium phosphate, and 50 mM sodium citrate, pH 5.0, were added to each well, followed by measurement of the absorbance at 450 nm after 10-20 min using a Tecan Infinite 1000 plate reader. Equilibrium dissociation constants (Kp) were determined by fitting the dose-response curves to a 1:1 binding isotherm equation via nonlinear regression. using SigmaPlot. Mean values and standard deviations were calculated from experiments performed in triplicate.
To illustrate this aspect of the invention, a series of PD-L1 targeting cyclopeptibodies were prepared by introducing variable spacer sequences between the cyclic peptide and Fc domain in the PD-L1-targeting cyclopeptibody cRK10-Tras-Fc (Table 1, Entries 31-34; FIG. 20). The spacer sequences included a more flexible (-GSGSGS-), more rigid (-PAPAP-; -EAAAK-) or longer linker (Q12) compared to the exa-glutamine (Q6) spacer sequence in cyclopeptibody cRK10-Tras-Fc.

Sonic Hedgehog (Shh) = Sonic Hedgehog (Shh) (human, UniProt Q15465 24-197, limits assumed); experiment: plate binding assay: immobilised Shh, FLAG-tagged binder titrated, HRP anti-FLAG detection
[3] = molecular target: T3, Kelch-like ECH-associated protein 1 (Keap1) (human, UniProt Q14145 321-609, limits assumed); experiment: plate binding assay with immobilised Keap1
T3 sequence (Q14145 321-609 limits assumed): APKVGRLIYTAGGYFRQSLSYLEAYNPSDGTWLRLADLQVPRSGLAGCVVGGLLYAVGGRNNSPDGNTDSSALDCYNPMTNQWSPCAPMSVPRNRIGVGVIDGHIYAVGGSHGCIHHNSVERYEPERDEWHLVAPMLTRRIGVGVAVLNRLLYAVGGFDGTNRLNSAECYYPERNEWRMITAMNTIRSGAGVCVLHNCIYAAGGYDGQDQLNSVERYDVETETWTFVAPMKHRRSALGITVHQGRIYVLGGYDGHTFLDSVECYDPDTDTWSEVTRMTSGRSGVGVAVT
Experimental: Keap1 Binding Assay. For the Keap1 binding assay, Keap1 was immobilized on microtiter plates by incubating 100 μL of a 4 μM protein solution in PBS buffer overnight at 4° C., followed by washing (3×150 μL of PBS with 0.5% Tween-20) and blocking with 0.5% bovine serum albumin in PBS for 1.5 h at room temperature. After washing, each well was incubated with 100 μL of purified FLAG-tagged peptide at varying concentrations for 1 hour at room temperature. After washing three times with wash buffer, each well was incubated with 100 μL of 1:2500 dilution of HRP-conjugate mouse anti-FLAG polyclonal antibody (Sigma-Aldrich) for 1 hour at room temperature. After three washing steps with wash buffer, 100 μL of 2.2 mM o-phenylenediamine dihydrochloride, 4.2 mM urea hydrogen peroxide, 100 mM dibasic sodium phosphate, and 50 mM sodium citrate, pH 5.0, were added to each well, followed by measurement of the absorbance at 450 nm after 10-20 min using a Tecan Infinite 1000 plate reader. Equilibrium dissociation constants (KD) were determined by fitting the dose-response curves to a 1:1 binding isotherm equation via nonlinear regression using SigmaPlot. Mean values and standard deviations were calculated from experiments performed in triplicate. […]

[4] = molecular target: T3, Kelch-like ECH-associated protein 1 …; experiment: plate binding assay: immobilised Keap1, FLAG-tagged binder titrated, HRP anti-FLAG detection, 1:1 isotherm fit
Experimental: (§1) Streptavidin Binding Assay. For the streptavidin binding assays, streptavidin-coated plates (Sigma-Aldrich) were used. For the Keap1, Shh and PD-L1 binding assay, target protein was immobilized on microtiter plates by incubating 100 μL of a 4 μM protein solution in PBS buffer overnight at 4° C., followed by decanting the protein solution and blocking with 0.5% bovine serum albumin in PBS for 2 h at room temperature. After washing (3×150 μL of PBS with 0.05% Tween-20), each well was incubated with 100 μL of purified FLAG-tagged cyclopeptibody at varying concentrations for 1 hour at room temperature. After washing three times with wash buffer, each well was incubated with 100 μL of 1:2500 dilution of HRP-conjugate mouse anti-FLAG polyclonal antibody (Sigma-Aldrich) for 1 hour at room temperature. After washing three times with wash buffer, 100 μL of 2.2 mM o-phenylenediamine dihydrochloride, 4.2 mM urea hydrogen peroxide, 100 mM dibasic sodium phosphate, and 50 mM sodium citrate, pH 5.0, were added to each well, followed by measurement of the absorbance at 450 nm after 10-20 min using a Tecan Infinite 1000 plate reader. Equilibrium dissociation constants (Kp) were determined by fitting the dose-response curves to a 1:1 binding isotherm equation via nonlinear regression. using SigmaPlot. Mean values and standard deviations were calculated from experiments performed in triplicate.

[5] = molecular target: T2, PD-L1 (Programmed Death-Ligand 1), …; experiment: plate binding assay: immobilised PD-L1, FLAG-tagged binder titrated, HRP anti-FLAG detection
Experimental: as §1

streptavidin [6] = molecular target: T1, streptavidin; experiment: plate binding assay on streptavidin-coated plates
[7] = molecular target: T4, PD-L1 on the surface of MDA-MB-231 breast cancer cells (human, UniProt Q9NZQ7 19-290); experiment: flow cytometry on MDA-MB-231 cells, 0.09 mg/ml, FITC anti-human IgG Fc secondary
T4 construct: whole, on cells; also called PD-L1 receptor on the cancer cells
T4 sequence (Q9NZQ7 19-290): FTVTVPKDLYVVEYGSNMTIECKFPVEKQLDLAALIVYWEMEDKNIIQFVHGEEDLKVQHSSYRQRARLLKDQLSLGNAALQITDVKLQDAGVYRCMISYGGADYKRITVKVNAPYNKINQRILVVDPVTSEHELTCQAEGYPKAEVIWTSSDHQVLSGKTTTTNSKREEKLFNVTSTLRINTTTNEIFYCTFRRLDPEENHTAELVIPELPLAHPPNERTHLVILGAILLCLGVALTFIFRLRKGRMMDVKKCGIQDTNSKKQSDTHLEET
Experimental: The cells were then incubated with fluorescein-conjugated anti-human IgG Fc antibody and analyzed by flow cytometry. The same experiment was carried out in parallel using commercially available anti-PD-L1 antibody as positive control and various negative controls. […] Several applications for these compounds can be easily envisioned, including detection and/or staining of PD-L1 in vitro and in vivo (e.g., upon conjugation of the cyclopeptibody with a fluorescent dye, IR probe, or PET contrast agent), cell-targeted drug delivery (e.g., upon conjugation of the PD-L1-binding cyclopeptibody with a drug cargo), and use as therapeutic agents in cancer immunotherapy, among others.

[8] = molecular target: T2, PD-L1 (Programmed Death-Ligand 1), …; experiment: competition assay: plate-immobilised PD-L1, competitor biotinylated PD-1 (500 nM), bound PD-1 read with HRP-streptavidin
Experimental: as §1, with “After washing three times with wash buffer, each well was incubated with 100 μL of 1:2500 dilution of HRP-conjugate mouse anti-FLAG polyclonal antibody (Sigma-Aldrich) for 1 hour at room temperature.” left out
PD-L1 Competition Assay. […] After washing, the bound PD-1 was quantified by means of HRP-conjugate Streptavidin and colorimetric assay as described above. […]

B1: cyclic peptide Strep-m3 alone (as CBD fusion) (peptide)
chain: SCWWHPQGD[O2beY]
modifications: thioether 2-10; also: as CBD fusion
Kd (streptavidin [1]): 50 nM

B2: cyclic peptide cRK10 (pCaaF) (peptide)
chain: TYLCGAISLA[pCaaF]KAQIKESL
modifications: thioether 4-11
Kd [2]: 13000 nM

B3: cyclic peptide L2-m5 alone (as CBD fusion) (peptide)
chain: TLSW[O2beY]EAMDMCTSS
modifications: thioether 5-11; also: as CBD fusion
Kd (Sonic Hedgehog (Shh)): 388 nM

B4: FLAG-cRK10-Q12-Tras-Fc-His (Fc fusion)
chain: DYKDDDDKGSGSTYLCGAISLA[pCaaF]KAQIKESLQQQQQQQQQQQQ-{Fc-H6}
modifications: thioether 16-23
notes: Spacer variant of cRK10-Tras-Fc (Q12); also called FLAG-(GS)2-TYLCGAISLAZKAQIKESL-(Q)12-(Fc)^1-H6
Kd [2]: 237 nM

B5: KKD-m1-Tras-Fc (Fc fusion)
chain: DYKDDDDKGSGS[O2beY]DSETGECQQQQQQ-{Fc-H6}
modifications: thioether 13-20; also: dimeric through the Fc
notes: Cyclic peptide fused through a (Gln)6 spacer to human IgG1 Fc; dimeric through the Fc; made in E. coli; also called FLAG-(GS)2-ZDSETGEC-(Q)6-(Fc)^1-H6
fold improved affinity against the same cyclic peptide fused to CBD [3]: > 20 fold
Kd [4]: 4 nM

B6: cRK10 (pCaaF)-Tras-Fc (Fc fusion)
chain: DYKDDDDKGSGSTYLCGAISLA[pCaaF]KAQIKESLQQQQQQ-{Fc-H6}
modifications: thioether 16-23
notes: also called cRK10-Tras-Fc; RK10-Tras-Fc-His
Kd [5]: 40 nM
Kd [2]: 42 nM
fold higher PD-L1 binding affinity against FLAG-cRK10-Q12-Tras-Fc-His [2]: 6 fold
fold higher binding affinity against the cyclic peptide cRK10 [2]: 300 fold

B7: Strep-m3-Tras-Fc (Fc fusion)
chain: DYKDDDDKGSGSSCWWHPQGD[O2beY]QQQQQQ-{Fc-H6}
modifications: thioether 14-22; also: dimeric through the Fc
notes: Cyclic peptide fused through a (Gln)6 spacer to human IgG1 Fc; dimeric through the Fc; made in E. coli; also called FLAG-(GS)2-SCWWHPQGDZ-(Q)6-(Fc)^1-H6
Kd (streptavidin [1]): 37 nM
fold improved affinity against the same cyclic peptide fused to CBD (streptavidin [6]): 1.3 fold

B8: cCLP003 (pCaaF)-Tras-Fc (Fc fusion)
chain: DYKDDDDKGSGSWHFS[pCaaF]NWRWLPCQQQQQQ
modifications: thioether 17-24 (inferred); not fully specified (C-terminus)
notes: also called cCLP003-Tras-Fc; cCLP003-Tras-Fc-His
Kd [5]: ~250 nM
fold higher MFI against cRK10-Tras-Fc [7]: 4 fold
IC50 [8]: 6000 nM
fold increase in affinity against the cyclic peptide alone [2]: 40 fold

B9: cyclic peptide cCLP003 (pCaaF) (peptide)
chain: WHFS[pCaaF″]NWRWLPC
modifications: thioether 5-12; not fully specified
Kd [2]: ~10000 nM
fold higher affinity against the linear CLP003 peptide [2]: ~40 fold

B10: FLAG-KKD-m1-KKD-m1-Tras-Fc-His (Fc fusion)
chain: DYKDDDDKGSGSYDSETGECGSGSENLYFQGSGSYDSETGECIEGRGSGS
modifications: thioether (positions not given here); not fully specified (residues 13, 35, C-terminus, bridges); also: two O2beY, each thioether-linked to Cys of its own cyclic peptide, places them at C20 and L27
notes: Two copies of the KKD-m1 cyclic peptide in tandem on each Fc chain; also called polyvalent Keap1-targeting cyclopeptibody
Kd [3]: 45 nM

B11: FLAG-Strep-m3-Strep-m3-Tras-Fc-His (Fc fusion)
chain: DYKDDDDKGSGSSCWWHPQGD[O2beY]GSGSENLYFQGSGSSCWWHPQGD[O2beY]IEGRGSGS-{Fc-His}
modifications: thioether 14-22, 38-46; not fully specified; also: second O2beY at Y30, thioether-linked to Cys of its own cyclic peptide
notes: Two copies of the Strep-m3 cyclic peptide in tandem on each Fc chain; also called polyvalent streptavidin-targeting cyclopeptibody
Kd (streptavidin [6]): 56 nM

B12: cyclic peptide KKD-m1 alone (as CBD fusion) (peptide)
chain: [O2beY]DSETGEC
modifications: thioether 1-8; also: as CBD fusion
Kd [4]: 85 nM
